Measurements as given in the supplement of paper PMC10567573.
± gives the standard deviation.

Assay: protein stability index of a GFP-peptide fusion (GPS, HEK-293T) (PSI 1-6); higher = more stable
Conditions: c terminus: a fixed tail appended
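Note: 24-mer peptide tiles fused after GFP, lentivirally expressed, FACS-sorted into six equal bins by GFP/DsRed ratio, decoded by Illumina sequencing, PSI is the read-weighted mean bin number.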

Sequence	protein stability index (treatment: DMSO)	protein stability index (treatment: MLN4924 1 uM, 8 h)
LQRPSYKFFFKSMDDDFGVVKEEI [DVL3]	2.76 ± 0.29	2.85 ± 0.35
TDHQTPPTSPVQGTTPQISPSTLI [HDAC6]	4.93 ± 0.16	4.86 ± 0.27
AISDQLLGAGSDLKDFTLNETVNS [ADAMTSL2]	4.32 ± 0.21	4.8 ± 0.42
TEELTVIKSSLKDEYQYSFWDLFR [SLC2A12]	2.38 ± 0.25	2.29 ± 0.35
GGLFVGKEGPMIHSGSVVGAGLPQ [CLCN6]	3.39 ± 0.16	3.46 ± 0.44
DKEGYNSIHYAAAYGHRQCLELVS [ANKRD44]	2.42 ± 0.14	2.59 ± 0.21
LEDGQTPLHLSALRDDVLCARMLY [ASB7]	2.67 ± 0.29	2.93 ± 0.33
IETIKIIETEDQIDKKPVSEKTDE [MIA2]	5.02 ± 0.39	4.7 ± 0.94
KVLHEDKQTREQLHSISDSVLFLQ [TRIM29]	3.46 ± 0.16	3.58 ± 0.27
VIAYDHSRVLLSAIEGIPGSDYVN [PTPRD]	1.89 ± 0.5	1.79 ± 0.28
LEEQFALEAGGYQAGAARLEEELR [PRPH]	5.35 ± 0.49	5.62 ± 0.16
AAAAAAPAPPPPAGGATAWGDLLG [SNAP91]	4.37 ± 0.17	4.42 ± 0.081
SGSQMSHNAVTSHQRPGWPGQPHS [NCF4]	3.95 ± 0.34	3.94 ± 0.29
LLAKNSKPIHTTILNPHVHVIGED [CAMK2B]	3.2 ± 0.14	3.35 ± 0.22
SGAFQWEELEEDIRKKLKDSGDVS [RHOBTB3]	5.17 ± 0.27	5.2 ± 0.34
PTVGIGGDRLQFNQLSQAELDELA [EFHC1]	5.13 ± 0.23	5.27 ± 0.15
DPRYNKWMQVASLNEKRTFFHLSA [KLHL13]	2.36 ± 0.32	2.12 ± 0.13
LLVLLLYAPVGFCLLVLRLFLGIH [AUP1]	2.21 ± 0.23	2.11 ± 0.2
RICLGKFTFPGMSLDKRQGEGLRI [TPRG1]	2.12 ± 0.19	2.08 ± 0.32
GMDFHRFYFENALSKSNKPIHTII [CAMK2D]	2.94 ± 1.8	2.06 ± 1.1
QVRSAAVQLIWVVSQLYPESIVPI [INTS4]	3.29 ± 0.32	2.9 ± 0.32
GVKRKADTTTPTTSAITASRSESP [BRD3]	5.22 ± 0.15	5.19 ± 0.16
HIPSQEVPGTQVGQGGKLWDPSVQ [ZNF263]	4.35 ± 0.12	4.44 ± 0.24

Sequence	protein stability index (treatment: DMSO)	protein stability index (treatment: MLN4924 1 uM, 8 h)
LSRVKAAALSERGQAEEELIKAKS [LRRC45]	5.01 ± 0.19	4.97 ± 0.061
FLQNAKTLLKKISEASKAFQMEKI [TRIM55]	3 ± 0.65	2.77 ± 0.42
LRKQLQPTHCKYEGPRKARRLWFA	2.43 ± 0.089	2.07 ± 0.25
VFKCVKRLDGCIYAIKRSKKPLAG [WEE1]	2.23 ± 0.27	2.28 ± 0.15
RQRSSLAKINIVYQELNYRSVEEA [SCNN1D]	3.41 ± 0.24	3.44 ± 0.22
KRFDESMQVFAKLGTDPTHVMGLY [VPS39]	2.38 ± 0.25	2.69 ± 0.095
GTTPQISPSTLIGSLRTLELGSES [HDAC6]	4.52 ± 0.27	
IITQLEDSRRVTKENSHQVKEELS [TRIM63]	4.28 ± 0.35	4.39 ± 0.26
PAAKPDPDGGRADEWACELRLFGR [P3H4]	3.47 ± 0.23	3.36 ± 0.33
KAQGHGAKGDNVYEFHLEFLDLVK [HACD3]	2.37 ± 0.2	2.46 ± 0.14
NLGPKSKVLILRNHGLVSVGESVE [ADD1]	2.69 ± 0.23	3.05 ± 0.38
GAVAPPVSGDLTKEDIDLIDILWR [NFE2L1]	3.16 ± 0.17	3.67 ± 0.53
MERPDKAALNALQPPEFRNESSLA [VMA21]	4.77 ± 0.26	4.84 ± 0.088
GSPVNQQPKKNNVMARTRLVVPNK [FAM219A]	4.17 ± 0.1	4.33 ± 0.31
DLKLRKFVFSTEERTQLRLESLED [TRIB1]	3.74 ± 0.1	4.2 ± 0.43
LDLSSSSQMSPLSLYGENSNSLSS [ATF6]	4.01 ± 0.19	3.92 ± 0.26
ESQVFSEKLATDTSTFEATSEGTL [ZNF232]	5.29 ± 0.13	5.15 ± 0.13
ELRGAEPGRPARLDQLLDMPAAGL [SPSB4]	3.84 ± 0.46	4.02 ± 0.5
WYTKSFGHLCAAEVVKIRDSFSNQ [DLC1]	2.56 ± 0.78	2.09 ± 0.49
AGEPGHSPADYLRFQDLVLRMLEY [DYRK1B]	2.27 ± 0.38	2.33 ± 0.22
TFNRWGTLLAVGCNDGRIVIWDFL [RBBP5]	2.35 ± 0.41	2.18 ± 0.27
DELTLARTDLEMQIEGLNEELAYL [KRT15]	4.1 ± 0.21	4.42 ± 0.36
